Laboratory results from the supplement of paper PMC9112550, “Optimization of the antimicrobial peptide Bac7 by deep mutational scanning” (BMC Biology, 2022).

Tested on: Escherichia coli TOP10
Assay: shrunken log2 fold change of peptide-encoding DNA abundance (4.5 h post-induction vs induction); higher = less antimicrobial activity (less host growth inhibition)
Conditions: time post-induction: 4.5 h; library: site-saturation at positions 5, 18, 19, 20
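Also: peptides expressed intracellularly from a pBAD plasmid library in pooled LB shake-flask culture, induced with 0.3% L-arabinose, DNA abundance read by NGS, three biological replicates, DESeq2 with apeglm shrinkage.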

| Sequence | shrunken log2 fold change |
| --- | --- |
| RRIRARPPRLPRPRPRPITNPRP | -0.54 |
| RRIRMRPPRLPRPRPRPWCYPRP | -0.162 |
| RRIRWRPPRLPRPRPRPYGEPRP | -0.0723 |
| RRIRDRPPRLPRPRPRPASVPRP | 0.0326 |
| RRIRNRPPRLPRPRPRPIWNPRP | -0.146 |
| RRIRYRPPRLPRPRPRPNMMPRP | -0.645 |
| RRIRYRPPRLPRPRPRPETTPRP | -0.289 |
| RRIRHRPPRLPRPRPRPEIYPRP | -0.413 |
| RRIRLRPPRLPRPRPRPPQPPRP | 0.816 |
| RRIRCRPPRLPRPRPRPSFKPRP | -0.75 |
| RRIRWRPPRLPRPRPRPGVSPRP | 0.34 |
| RRIRFRPPRLPRPRPRPAQVPRP | -0.0516 |
| RRIRGRPPRLPRPRPRPAQYPRP | 0.233 |
| RRIRLRPPRLPRPRPRPCHEPRP | 0.0247 |
| RRIRFRPPRLPRPRPRPTKVPRP | -0.157 |
| RRIRARPPRLPRPRPRPYPNPRP | -0.257 |
| RRIRTRPPRLPRPRPRPTYDPRP | -0.311 |
| RRIRHRPPRLPRPRPRPQNRPRP | -0.0146 |
| RRIRGRPPRLPRPRPRPYVYPRP | -0.0911 |
| RRIRMRPPRLPRPRPRPFVHPRP | -0.178 |
| RRIRQRPPRLPRPRPRPLPEPRP | 0.39 |
| RRIRWRPPRLPRPRPRPFTTPRP | -0.0833 |
| RRIRLRPPRLPRPRPRPVDCPRP | -0.456 |
| RRIRQRPPRLPRPRPRPAETPRP | 0.0338 |
| RRIRFRPPRLPRPRPRPLKMPRP | -0.428 |

| Sequence | shrunken log2 fold change |
| --- | --- |
| RRIRKRPPRLPRPRPRPQCNPRP | -0.0696 |
| RRIRTRPPRLPRPRPRPHDTPRP | -0.213 |
| RRIRMRPPRLPRPRPRPLCNPRP | 0.0857 |
| RRIRERPPRLPRPRPRPIQYPRP | -0.163 |
| RRIRSRPPRLPRPRPRPYKKPRP | -0.0605 |
| RRIRHRPPRLPRPRPRPQKMPRP | -0.132 |
| RRIRHRPPRLPRPRPRPCDNPRP | -0.207 |
| RRIRDRPPRLPRPRPRPYRRPRP | -0.0062 |
| RRIRQRPPRLPRPRPRPHDSPRP | -0.0135 |
| RRIRLRPPRLPRPRPRPVSDPRP | 0.128 |
| RRIRNRPPRLPRPRPRPKNCPRP | -0.552 |
| RRIRARPPRLPRPRPRPAVAPRP | 0.728 |
| RRIRHRPPRLPRPRPRPEIMPRP | -0.023 |
| RRIRPRPPRLPRPRPRPFRWPRP | -0.0528 |
| RRIRWRPPRLPRPRPRPFWWPRP | 0.402 |
| RRIRHRPPRLPRPRPRPCTPPRP | -0.382 |
| RRIRFRPPRLPRPRPRPVTLPRP | 0.347 |
| RRIRKRPPRLPRPRPRPSHQPRP | -0.146 |
| RRIRSRPPRLPRPRPRPREYPRP | -0.0557 |
| RRIRERPPRLPRPRPRPWWLPRP | -0.183 |
| RRIRSRPPRLPRPRPRPHCMPRP | -0.344 |
| RRIRCRPPRLPRPRPRPFDAPRP | 0.0524 |
| RRIRKRPPRLPRPRPRPNHQPRP | -0.376 |
| RRIRWRPPRLPRPRPRPTDYPRP | 0.233 |
| RRIRNRPPRLPRPRPRPVTNPRP | 0.0485 |

| Sequence | shrunken log2 fold change |
| --- | --- |
| RRIRFRPPRLPRPRPRPGKMPRP | -0.0519 |
| RRIRIRPPRLPRPRPRPTNCPRP | -0.649 |
| RRIRPRPPRLPRPRPRPMCSPRP | -0.152 |
| RRIRPRPPRLPRPRPRPHFTPRP | -0.302 |
| RRIRMRPPRLPRPRPRPGRMPRP | 0.993 |
| RRIRWRPPRLPRPRPRPIYKPRP | -0.596 |
| RRIRQRPPRLPRPRPRPNCRPRP | 0.13 |
| RRIRQRPPRLPRPRPRPNCTPRP | -0.448 |
| RRIRGRPPRLPRPRPRPIHGPRP | -0.161 |
| RRIRRRPPRLPRPRPRPTVRPRP | -0.00514 |
| RRIRMRPPRLPRPRPRPMAIPRP | 0.227 |
| RRIRERPPRLPRPRPRPNPWPRP | -0.0758 |
| RRIRVRPPRLPRPRPRPTVEPRP | 0.195 |
| RRIRHRPPRLPRPRPRPPNDPRP | -0.471 |
| RRIRGRPPRLPRPRPRPVLPPRP | 0.383 |
| RRIRWRPPRLPRPRPRPRGEPRP | 0.397 |
| RRIRNRPPRLPRPRPRPINKPRP | -0.56 |
| RRIRLRPPRLPRPRPRPEGAPRP | 0.552 |
| RRIRCRPPRLPRPRPRPYWQPRP | -0.419 |
| RRIRSRPPRLPRPRPRPKNHPRP | -0.215 |
| RRIRCRPPRLPRPRPRPSSYPRP | -0.531 |
| RRIRFRPPRLPRPRPRPHSTPRP | -0.0436 |
| RRIRHRPPRLPRPRPRPTDKPRP | -0.185 |
| RRIRTRPPRLPRPRPRPKQNPRP | 0.638 |
| RRIRARPPRLPRPRPRPHPVPRP | 0.277 |

| Sequence | shrunken log2 fold change |
| --- | --- |
| RRIRPRPPRLPRPRPRPGCNPRP | -0.124 |
| RRIRIRPPRLPRPRPRPQISPRP | 0.0222 |
| RRIRIRPPRLPRPRPRPKNIPRP | -0.733 |
| RRIRCRPPRLPRPRPRPIFRPRP | -0.013 |
| RRIRHRPPRLPRPRPRPSPCPRP | -0.225 |
| RRIRKRPPRLPRPRPRPIMLPRP | 0.0564 |
| RRIRYRPPRLPRPRPRPHYQPRP | -0.522 |
| RRIRARPPRLPRPRPRPCGVPRP | 0.255 |
| RRIRWRPPRLPRPRPRPSFTPRP | -0.397 |
| RRIRERPPRLPRPRPRPWSDPRP | -0.0787 |
| RRIRERPPRLPRPRPRPNDFPRP | -0.0161 |
| RRIRPRPPRLPRPRPRPKTHPRP | -0.0419 |
| RRIRMRPPRLPRPRPRPAWFPRP | 0.634 |
| RRIRSRPPRLPRPRPRPYGVPRP | 0.0325 |
| RRIRDRPPRLPRPRPRPEIMPRP | 0.245 |
| RRIRSRPPRLPRPRPRPRSRPRP | 0.0341 |
| RRIRDRPPRLPRPRPRPQCTPRP | 0.191 |
| RRIRARPPRLPRPRPRPRACPRP | 0.447 |
| RRIRPRPPRLPRPRPRPTSPPRP | -0.0252 |
| RRIRVRPPRLPRPRPRPRPGPRP | 0.627 |
| RRIRRRPPRLPRPRPRPRLDPRP | 0.347 |
| RRIRFRPPRLPRPRPRPGMRPRP | 0.44 |
| RRIRNRPPRLPRPRPRPKLSPRP | 0.0328 |
| RRIRDRPPRLPRPRPRPDMAPRP | 0.219 |
| RRIRPRPPRLPRPRPRPNKAPRP | 0.0279 |

| Sequence | shrunken log2 fold change |
| --- | --- |
| RRIRIRPPRLPRPRPRPIIKPRP | -0.666 |
| RRIRYRPPRLPRPRPRPHYRPRP | -0.433 |
| RRIRTRPPRLPRPRPRPEMYPRP | -0.012 |
| RRIRMRPPRLPRPRPRPAFVPRP | 0.233 |
| RRIRARPPRLPRPRPRPMDAPRP | 0.293 |
| RRIRVRPPRLPRPRPRPMTLPRP | -0.0218 |
| RRIRTRPPRLPRPRPRPKEEPRP | 0.00448 |
| RRIRARPPRLPRPRPRPKNEPRP | 0.215 |
| RRIRKRPPRLPRPRPRPRTGPRP | 0.376 |
| RRIRFRPPRLPRPRPRPSHLPRP | -0.737 |
| RRIRCRPPRLPRPRPRPARDPRP | 1.84 |
| RRIRQRPPRLPRPRPRPIMMPRP | -0.0173 |
| RRIRCRPPRLPRPRPRPEVRPRP | 0.24 |
| RRIRLRPPRLPRPRPRPNRPPRP | -0.0609 |
| RRIRTRPPRLPRPRPRPKWDPRP | -0.0626 |
| RRIRPRPPRLPRPRPRPGNTPRP | -0.241 |
| RRIRWRPPRLPRPRPRPYDKPRP | -0.534 |
| RRIRGRPPRLPRPRPRPRYLPRP | 0.282 |
| RRIRMRPPRLPRPRPRPYVSPRP | 0.013 |
| RRIRERPPRLPRPRPRPCMIPRP | -0.2 |
| RRIRNRPPRLPRPRPRPGTWPRP | 0.218 |
| RRIRFRPPRLPRPRPRPCEDPRP | -0.13 |
| RRIRQRPPRLPRPRPRPDNMPRP | -0.163 |
| RRIRYRPPRLPRPRPRPTYTPRP | -0.802 |
| RRIRFRPPRLPRPRPRPGKKPRP | 0.0937 |

| Sequence | shrunken log2 fold change |
| --- | --- |
| RRIRERPPRLPRPRPRPCRFPRP | -0.455 |
| RRIRCRPPRLPRPRPRPKAYPRP | -0.0053 |
| RRIRQRPPRLPRPRPRPYKPPRP | 0.0291 |
| RRIRLRPPRLPRPRPRPQPHPRP | 0.077 |
| RRIRNRPPRLPRPRPRPYLKPRP | -0.151 |
| RRIRCRPPRLPRPRPRPPWCPRP | -0.123 |
| RRIRERPPRLPRPRPRPAEWPRP | 0.143 |
| RRIRNRPPRLPRPRPRPAFMPRP | 0.0417 |
| RRIRNRPPRLPRPRPRPFCCPRP | -0.257 |
| RRIRPRPPRLPRPRPRPVKDPRP | -0.0309 |
| RRIRQRPPRLPRPRPRPRLMPRP | 0.00478 |
| RRIRMRPPRLPRPRPRPAFYPRP | -0.0165 |
| RRIRIRPPRLPRPRPRPFDPPRP | -0.438 |
| RRIRIRPPRLPRPRPRPYWIPRP | -0.568 |
| RRIRCRPPRLPRPRPRPPYWPRP | 0.279 |
| RRIRQRPPRLPRPRPRPTSNPRP | -0.64 |
| RRIRCRPPRLPRPRPRPYRHPRP | -0.982 |
| RRIRCRPPRLPRPRPRPKIAPRP | 0.0102 |
| RRIRWRPPRLPRPRPRPKQYPRP | -0.266 |
| RRIRGRPPRLPRPRPRPEVGPRP | 1.52 |
| RRIRRRPPRLPRPRPRPMKHPRP | -0.191 |
| RRIRGRPPRLPRPRPRPMGEPRP | 0.902 |
| RRIRFRPPRLPRPRPRPWFNPRP | -0.897 |
| RRIRIRPPRLPRPRPRPGHFPRP | -0.0592 |
| RRIRRRPPRLPRPRPRPDLYPRP | 0.0296 |
